The values that follow come from publication PMC6284806 (Nanotechnology, 2015).

This series deals with the molecule itself. As to the kind of experiment: AUC.

B1: Horse spleen apoferritin (natural protein, UniProt P02791 1-175, looked up)
chain: MSSQIRQNYSTEVEAAVNRLVNLYLRASYTYLSLGFYFDRDDVALEGVCHFFRELAEEKREGAERLLKMQNQRGGRALFQDLQKPSQDEWGTTLDAMKAAIVLEKSLNQALLDLHALGSAQADPHLCDFLESHFLDEEVKLIKKMGDHLTNIQRLVGSQAGLGEYLFERLTLKHD
Consider B1, for which the “stoichiometry N” value is 24.
